Source: the RNAGym collection of RNA variant scans (doi:10.7554/elife.80360)

B1: CPEB3 Ribozyme (parent)
chain: GGGGGCCACAGCAGAAGCGUUCACGUCGCGGCCCCUGUCAGAUUCUGGUGAAUCUGCGAAUUCUGCUGU

Variants of: B1
Experiment: self-cleavage, relative activity (ratio to wild type); higher = more cleavage; co-transcriptional

Variant	self-cleavage
GGGGGCCACAGCAGAAGCGUUCACGUCGCGGCCCCUGUCAGAUUCUGGUGAAUCUGCGAAUUCAGCUGA [U64A U69A]	0.964
GGGGGCCACAGCAGAAGCGUUCACGUCGCGGCCCCUGUCAGAUUCUGGUGAAUCUGCGAAUUCAGCUGC [U64A U69C]	1.05
GGGGGCCACAGCAGAAGCGUUCACGUCGCGGCCCCUGUCAGAUUCUGGUGAAUCUGCGAAUUCAGCUGG [U64A U69G]	0.988
GGGGGCCACAGCAGAAGCGUUCACGUCGCGGCCCCUGUCAGAUUCUGGUGAAUCUGCGAAUUCGGAUGU [U64G C66A]	0.422
GGGGGCCACAGCAGAAGCGUUCACGUCGCGGCCCCUGUCAGAUUCUGGUGAAUCUGCGAAUUUAGCUGU [C63U U64A]	0.73
GGGGGCCACAGCAGAAGCGUUCACGUCGCGGCCCCUGUCAGAUUCUGGUGAAUCUGCGAAUUUCGCUGU [C63U U64C]	0.836
GGGGGCCACAGCAGAAGCGUUCACGUCGCGGCCCCUGUCAGAUUCUGGUGAAUCUGCGAAUUCCUCUGU [U64C G65U]	0.699
GGGGGCCACAGCAGAAGCGUUCACGUCGCGGCCCCUGUCAGAUUCUGGUGAAUCUGCGAAUUUUGCUCU [C63U G68C]	0.972
GGGGGCCACAGCAGAAGCGUUCACGUCGCGGCCCCUGUCAGAUUCUGGUGAAUCUGCGAAUUUUGCUUU [C63U G68U]	0.968
GGGGGCCACAGCAGAAGCGUUCACGUCGCGGCCCCUGUCAGAUUCUGGUGAAUCUGCGAAUUUUACUGU [C63U G65A]	0.672
GGGGGCCACAGCAGAAGCGUUCACGUCGCGGCCCCUGUCAGAUUCUGGUGAAUCUGCGAAUUUUCCUGU [C63U G65C]	0.419
GGGGGCCACAGCAGAAGCGUUCACGUCGCGGCCCCUGUCAGAUUCUGGUGAAUCUGCGAAUUUUUCUGU [C63U G65U]	0.772
GGGGGCCACAGCAGAAGCGUUCACGUCGCGGCCCCUGUCAGAUUCUGGUGAAUCUGCGAAUUCAGCUAU [U64A G68A]	0.99
GGGGGCCACAGCAGAAGCGUUCACGUCGCGGCCCCUGUCAGAUUCUGGUGAAUCUGCGAAUUCCGCGGU [U64C U67G]	0.824
GGGGGCCACAGCAGAAGCGUUCACGUCGCGGCCCCUGUCAGAUUCUGGUGAAUCUGCGAAUUUUGCAGU [C63U U67A]	0.94
GGGGGCCACAGCAGAAGCGUUCACGUCGCGGCCCCUGUCAGAUUCUGGUGAAUCUGCGAAUUCCGCUUU [U64C G68U]	0.803
GGGGGCCACAGCAGAAGCGUUCACGUCGCGGCCCCUGUCAGAUUCUGGUGAAUCUGCGAAUUUUGCUGC [C63U U69C]	1.06
GGGGGCCACAGCAGAAGCGUUCACGUCGCGGCCCCUGUCAGAUUCUGGUGAAUCUGCGAAUUCCGCUGA [U64C U69A]	0.972
GGGGGCCACAGCAGAAGCGUUCACGUCGCGGCCCCUGUCAGAUUCUGGUGAAUCUGCGAAUUCCGCUGG [U64C U69G]	1
GGGGGCCACAGCAGAAGCGUUCACGUCGCGGCCCCUGUCAGAUUCUGGUGAAUCUGCGAAUUCCGAUGU [U64C C66A]	0.435

Variant	self-cleavage
GGGGGCCACAGCAGAAGCGUUCACGUCGCGGCCCCUGUCAGAUUCUGGUGAAUCUGCGAAUUCAGCCGU [U64A U67C]	0.83
GGGGGCCACAGCAGAAGCGUUCACGUCGCGGCCCCUGUCAGAUUCUGGUGAAUCUGCGAAUUGUGCAGU [C63G U67A]	0.614
GGGGGCCACAGCAGAAGCGUUCACGUCGCGGCCCCUGUCAGAUUCUGGUGAAUCUGCGAAUUCAUCUGU [U64A G65U]	0.827
GGGGGCCACAGCAGAAGCGUUCACGUCGCGGCCCCUGUCAGAUUCUGGUGAAUCUGCGAAUUCACCUGU [U64A G65C]	0.39
GGGGGCCACAGCAGAAGCGUUCACGUCGCGGCCCCUGUCAGAUUCUGGUGAAUCUGCGAAUUGCGCUGU [C63G U64C]	0.407
GGGGGCCACAGCAGAAGCGUUCACGUCGCGGCCCCUGUCAGAUUCUGGUGAAUCUGCGAAUUGAGCUGU [C63G U64A]	0.689
GGGGGCCACAGCAGAAGCGUUCACGUCGCGGCCCCUGUCAGAUUCUGGUGAAUCUGCGAAUUCCGCUGU [U64C]	0.941
GGGGGCCACAGCAGAAGCGUUCACGUCGCGGCCCCUGUCAGAUUCUGGUGAAUCUGCGAAUUCGGCUGU [U64G]	0.952
GGGGGCCACAGCAGAAGCGUUCACGUCGCGGCCCCUGUCAGAUUCUGGUGAAUCUGCGAAUUCAGCUGU [U64A]	0.963
GGGGGCCACAGCAGAAGCGUUCACGUCGCGGCCCCUGUCAGAUUCUGGUGAAUCUGCGAAUUGUUCUGU [C63G G65U]	0.525
GGGGGCCACAGCAGAAGCGUUCACGUCGCGGCCCCUGUCAGAUUCUGGUGAAUCUGCGAAUUGUACUGU [C63G G65A]	0.461
GGGGGCCACAGCAGAAGCGUUCACGUCGCGGCCCCUGUCAGAUUCUGGUGAAUCUGCGAAUUAGGCUGU [C63A U64G]	0.783
GGGGGCCACAGCAGAAGCGUUCACGUCGCGGCCCCUGUCAGAUUCUGGUGAAUCUGCGAAUUCGUCUGU [U64G G65U]	0.672
GGGGGCCACAGCAGAAGCGUUCACGUCGCGGCCCCUGUCAGAUUCUGGUGAAUCUGCGAAUUCGGCAGU [U64G U67A]	0.88
GGGGGCCACAGCAGAAGCGUUCACGUCGCGGCCCCUGUCAGAUUCUGGUGAAUCUGCGAAUUCGGCGGU [U64G U67G]	0.769
GGGGGCCACAGCAGAAGCGUUCACGUCGCGGCCCCUGUCAGAUUCUGGUGAAUCUGCGAAUUCGGCCGU [U64G U67C]	0.788
GGGGGCCACAGCAGAAGCGUUCACGUCGCGGCCCCUGUCAGAUUCUGGUGAAUCUGCGAAUUUUGGUGU [C63U C66G]	0.456
GGGGGCCACAGCAGAAGCGUUCACGUCGCGGCCCCUGUCAGAUUCUGGUGAAUCUGCGAAUUGUGCUGG [C63G U69G]	0.921
GGGGGCCACAGCAGAAGCGUUCACGUCGCGGCCCCUGUCAGAUUCUGGUGAAUCUGCGAAUUGUGCUCU [C63G G68C]	0.706
